From patent US20140301945A1 (NEURIMMUNE, published 2014)
Blank lines part the entries; values can stand above or below the binder they belong to.

Legend:
[1] = biological target: T1, recombinant human SOD1 (biomol, Hamburg) (human, UniProt P00441 2-154, limits assumed); assay: direct ELISA, recombinant SOD1 coated at 20 µg/ml
T1 construct: Bought protein; also called recombinant human superoxide dismutase 1; Recombinant SOD1
Method: (§1) Primary antibodies were diluted to the indicated concentrations and incubated 1 h at RT. Binding was determined using either a donkey anti-human IgG Fcγ-specific antibody conjugated with HRP or a goat anti-mouse IgG (H+L)-specific antibody conjugated with HRP, followed by measurement of HRP activity in a standard colorimetric assay.
(§2) The EC₅₀ of the different human-derived SOD1-specific antibodies for native human SOD1 dimers, denatured/oxidized human SOD1 and recombinant SOD1 was determined by direct ELISA with coating of the different SOD1 species at 20 μg/ml concentration.

[2] = biological target: T2, in vitro misfolded/aggregated human SOD1 (metal-catalyzed oxidation) (human, UniProt P00441 2-154, oxidized by metal-catalyzed oxidation (4 mM ascorbic acid, 0.2 mM CuCl2, 48 hours at 37 C); residues not stated); assay: direct ELISA, oxidized human SOD1 coated at 20 µg/ml
T2 construct: also called Oxidized SOD1; in vitro aggregated human SOD1 dimers

[3] = biological target: T3, in vitro denatured human SOD1 (human, UniProt P00441 2-154); assay: direct ELISA, denatured human SOD1 coated at 20 µg/ml
T3 construct: also called Denatured SOD1; unfolded SOD1
Method: as §1, §2

[4] = biological target: T4, wild type SOD1 from human erythrocytes (physiological dimers) (human, UniProt P00441 2-154); assay: direct ELISA, native human SOD1 dimers coated at 20 µg/ml
T4 construct: Purified from human erythrocytes (Sigma-Aldrich); homodimer; control incubated in Tris acetate buffer without oxidants; also called Native SOD1; native human SOD1 dimers
Method: as §1, §2

bovine serum albumin = biological target: T5, bovine serum albumin (bovine, UniProt P02769 25-607); assay: direct ELISA, BSA coated at 3.3 µg/ml
T5 construct: Control antigen in ELISA; also called BSA
From the text: Non-specific binding sites were blocked for 2 hr at RT with PBS containing 2% BSA (Sigma-Aldrich, Buchs, Switzerland) and 0.5% Tween20.

[5] = biological target: T1, recombinant human SOD1 (biomol, Hamburg); assay: direct ELISA, recombinant human SOD1 coated at 3.3 µg/ml
Method: Binding was determined using a donkey anti-human IgGγ antibody (Jackson immunoResearch, Newmarket, UK) conjugated with HRP, followed by measurement of HRP activity in a standard colorimetric assay.
The EC₅₀ values were estimated by a non-linear regression using GraphPad Prism (San Diego, USA) software.

[6] = biological target: T2, in vitro misfolded/aggregated human …; assay: direct ELISA, in vitro aggregated human SOD1 coated at 34 µg/ml
Method: (§3) Non-specific binding sites were blocked for 1 hr at RT with PBS/0.1% Tween®-20 containing 2% BSA (Sigma-Aldrich, Buchs, Switzerland). […] Binding was determined using either a goat anti-mouse IgG antibody (Jackson immunoResearch, Newmarket, UK) or a donkey anti-human IgGγ antibody (Jackson immunoResearch, Newmarket, UK) conjugated with HRP, followed by measurement of HRP activity in a standard colorimetric assay. EC₅₀ values were estimated by a non-linear regression using GraphPad Prism software (San Diego, USA).

[7] = biological target: T1, recombinant human SOD1 (biomol, Hamburg); assay: direct ELISA, recombinant human SOD1 coated at 1 µg/ml
Method: (§4) Binding was determined using either a goat anti-mouse IgG antibody (Jackson immunoResearch, Newmarket, UK) or a donkey anti-human IgGγ (Jackson immunoResearch, Newmarket, UK) antibody conjugated with HRP, followed by measurement of HRP activity in a standard colorimetric assay. The EC₅₀ values were estimated by a non-linear regression using GraphPad Prism (San Diego, USA) software.

[8] = biological target: T1, recombinant human SOD1 (biomol, Hamburg); assay: direct ELISA, recombinant human SOD1 coated at 10 µg/ml
Method: as §4

[9] = biological target: T1, recombinant human SOD1 (biomol, Hamburg); assay: direct ELISA, recombinant human SOD1 coated at 30 µg/ml
Method: as §4

[10] = biological target: T1, recombinant human SOD1 (biomol, Hamburg); assay: direct ELISA, recombinant human SOD1 coated at 0.1 µg/ml
Method: as §4

[11] = biological target: T1, recombinant human SOD1 (biomol, Hamburg); assay: direct ELISA, recombinant human SOD1 coated at 1 µg/ml; remark: listed apart in the source
Method: as §4

[12] = biological target: T1, recombinant human SOD1 (biomol, Hamburg); assay: direct ELISA, recombinant human SOD1 coated at 10 µg/ml; remark: listed apart in the source
[13] = biological target: T1, recombinant human SOD1 (biomol, Hamburg); assay: direct ELISA, recombinant human SOD1 coated at 0.1 µg/ml; remark: listed apart in the source
[14] = biological target: T4, wild type SOD1 from human erythrocytes …; assay: direct ELISA, physiological human SOD1 dimers coated at 34 µg/ml
Method: as §3

[15] = biological target: wild type SOD1 from human erythrocytes (physiological dimers) (human) (UniProt P00441); assay: direct ELISA, native human SOD1 dimers coated at 20 µg/ml; Native SOD1 (not denatured, oxidized or recombinant)
Chain of wild type SOD1 from human erythrocytes (physiological dimers) (human) (P00441 2-154 limits assumed): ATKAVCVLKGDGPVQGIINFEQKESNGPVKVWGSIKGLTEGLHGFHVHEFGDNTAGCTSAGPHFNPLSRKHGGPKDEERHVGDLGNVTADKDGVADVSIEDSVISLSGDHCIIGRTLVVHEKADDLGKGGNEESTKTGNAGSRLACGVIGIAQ

T5 sequence (P02769 25-607 limits assumed): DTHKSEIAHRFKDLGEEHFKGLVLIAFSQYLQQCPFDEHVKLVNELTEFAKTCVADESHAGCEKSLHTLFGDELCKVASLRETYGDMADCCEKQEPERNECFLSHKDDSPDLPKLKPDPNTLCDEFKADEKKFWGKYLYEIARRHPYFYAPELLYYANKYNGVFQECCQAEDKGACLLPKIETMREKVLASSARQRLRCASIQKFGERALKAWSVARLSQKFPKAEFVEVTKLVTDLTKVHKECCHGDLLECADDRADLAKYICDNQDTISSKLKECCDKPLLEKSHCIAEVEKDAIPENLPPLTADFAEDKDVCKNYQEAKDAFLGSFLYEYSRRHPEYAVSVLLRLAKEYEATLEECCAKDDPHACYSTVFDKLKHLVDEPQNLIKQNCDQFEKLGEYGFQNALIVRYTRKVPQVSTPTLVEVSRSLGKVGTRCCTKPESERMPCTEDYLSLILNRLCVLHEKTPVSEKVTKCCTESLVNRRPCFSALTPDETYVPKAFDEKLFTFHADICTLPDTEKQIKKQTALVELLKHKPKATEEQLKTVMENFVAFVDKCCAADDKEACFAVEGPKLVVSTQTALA
T3 sequence (P00441 2-154 limits assumed): as the sequence (P00441 2-154 limits assumed) above
T2 sequence (P00441 2-154 limits assumed): as above
T4 sequence (P00441 2-154 limits assumed): as above
T1 sequence (P00441 2-154 limits assumed): as above

B1: NI-204.7B3 (antibody, human IgG1, V domains shown)
VH: EVQLVQSGGDIVQSGGSLRLSCAASGFVFSSNWMHWVRQRPGKGLEWISLINVDGRTTKYADSVKGRFTISRDNAKKTVYLQMDSLRAEDTAVYYCVKVEGLNWGPGTLVTVSS
VL: LPVLTQPPSVSVSPGQTARITCSGDELSKQYAYWYQKKSGQAPVMVVNEDTKRPPGIPERFSGSSSGTTSTLTISGVQAEDEADYYCQSADITGSWVFGGGTKLTVL
EC50 [1]: 42 nM
EC50 [2]: > 100 nM
EC50 [3]: 50 nM
EC50 [4]: > 100 nM

B2: NI-204.7G5 (antibody, human IgG1, V domains shown)
VH: EVQLVESGGGVVQAGGSLRLSCVASGLTFSSYGMHWVRQAPGKGLEWVAVISYDGRSKFYADSVKGRFTISRDNSKNTLYLQMNSLRAEDAAVYYCANARVRDACSGTRCDKFGFYMDVWGKGTTVTVSS
VL: SYVLTQPPSVSVSPGQTARITCSGDALPKKYAYWYQQKSGQAPVLVIYEDIKRPSGIPERFSGSSSGTMATLTISGAQVEDEGDYYCYSADRSGNRWAFGGGTKLTVL
EC50 [1]: 13 nM
EC50 [2]: 5 nM
EC50 [3]: 60 nM
EC50 [4]: > 100 nM

B6: NI-204.9F6 (antibody, human IgG1, V domains shown)
VH: EVQLVESGGGLVQPGGSLRLSCAVSGFTFDTFAMSWVRQAPGKGLEWVSAITASSSKTYYADSVKGRFTISRDNSRNTVYLRLSSLRADDTAVYFCARPKGAHSGLYIESAFDLWGPGTMVTVSS
VL: SYVLTQPPSVSVSAGQTASITCSADMLGDTYVSWYQKRPGQSPVLLIYQDSKRPSEIPERFSGSSSEDTATLTITGTQALDEAAYYCQVWDRRTTTYVFGPGTEVTVL
notes: also called NI-209.9F6
binding result (bovine serum albumin): no binding
EC50 [1]: > 100 nM
EC50 [5]: 105 nM
EC50 [2]: > 100 nM
EC50 [4]: > 100 nM
EC50 [6]: 127 nM
EC50 [7]: 134 nM
EC50 [8]: 148 nM
EC50 [9]: 117 nM
EC50 [10]: 451 nM

B10: NI-204.34A3 (antibody, human IgG1, V domains shown)
VH: EVQLVESGGGLVKPGGSLRVSCDVSGQRLSKAWMNWVRQTPTRGLEWVGLIKRDADGGTTEFAAPVEGRFTISRDDIQNTMTLHMTRLRVDDTGVYYCVAGDIGCIKENCRWGEGTTVTVSS
VL: SYELTQPPSVSVSPGQTARITCSGDALPTKFAFWYQQKSGQAPVLVIYEDDKRPSGIPQRFSGSSSGTTATLTISGAQEEDDADYYCYSKDSTNVERVFGTGTKLSVL
EC50 [1]: 2 nM
EC50 [2]: 12 nM
EC50 [3]: 10 nM
EC50 [4]: > 100 nM

B11: NI-204.10D12 (antibody, V domains shown)
VH: EVQLVESGGDLVRPGGSLRLSCVASGFTFSNYWMHWVRQAPGQRPVWVSRTNTDGRNTAYADYAKGRFTISRDNAKSTLYLQLNSLRAEDTAVYFCARLRRNVADQITHNYYMDVWGKGTLVTVSS
VL: EIVLTQSPGSLAVSLGERATINCKSSQTVLYNNKNYLAWYQQKPGQPPKLLISWASSRESGVPDRFSGSGSGTDFTLTISSLQAEDVAVYYCQHYYGTPVTFGGGTKVEIK
binding result (bovine serum albumin): no binding
EC50 [1]: 7 nM
EC50 [5]: 10 nM
EC50 [2]: 6 nM
EC50 [3]: 5 nM
EC50 [6]: 15 nM
EC50 [7]: 81.4 nM
EC50 [8]: 24 nM
EC50 [9]: 35 nM
EC50 [10]: 606 nM
EC50 [15]: > 100 nM

The remaining binders from weak to strong by EC50 [1], led by results:

EC50 [1]: 2 nM
EC50 [2]: 4 nM
EC50 [3]: 5 nM
EC50 [4]: > 100 nM
B5: NI-204.6H1 (antibody, human IgG1, V domains shown)
VH: QVQLQQWGAGRLRPSETLSLTCAVYGGSFNGYARTWIRQPPGKGLEWIGEIDHRENTNYNPSLKSRVTMSVDTSKNQFSLRLNSVTAADTAVYFCARGQKNAKDQHEGFRYWGRGTLVTVSS
VL: SYELTQPPSVSVSPGQTARITCSGDALPKQFAYWYQQKSGQAPKLVIFKDTERPSGIPERFSASSSGTKATLTISGVQAEDEADYYCQSADRTATSWVFGGGTKLTVL

EC50 [1]: 1 nM
EC50 [2]: 2 nM
EC50 [3]: 4 nM
EC50 [4]: > 100 nM
B4: NI-204.25H3 (antibody, human IgG1, V domains shown)
VH: QVQLQESGPGLVKPSETLSLTCTVSGGSISSSYWSWIRQPPGQGLEWIGYIYYSGNTYYNPSLKSRVTISIDTSKTQFSLNLTSVSAADTAVYYCARDGIPGAIGMDVWGQGTTVTVSS
VL: QSVLTQPPSVSAAPGQKVNISCSGSSSNIGNNYVSWYQRLPGTAPKLLIYDNNKRPSGIPDRFSGSKSGTSATLGITGLQTGDGADYYCATWDKSLIAVVFGGGTKLTVL

binding result (bovine serum albumin): no binding
EC50 [1]: 1 nM
EC50 [11]: 19 nM
EC50 [12]: 2 nM
EC50 [13]: 96 nM
EC50 [5]: 2.7 nM
EC50 [2]: > 100 nM
EC50 [3]: > 100 nM
EC50 [4]: > 100 nM
EC50 [6]: 29.5 nM
EC50 [14]: 19.1 nM
EC50 [7]: 18.7 nM
EC50 [8]: 2.1 nM
EC50 [9]: 2.2 nM
EC50 [10]: 95.9 nM
B9: NI-204.10A8 (antibody, human IgG1, V domains shown)
VH: EVQLVESGAEVKEPGSSVRVSCKTSGGSFNRHVITWVRQAPGQGLEWMGEIIPFFGTPKYAPKFQGRVTIIADASTSTFFLDVKSLTSEDTALYFCWIVVVSVVQRREDFWGQGILVTVSS
VL: EIVLTQSPSSLSASVGDTVTITCRSSQNISNYLSWFQHKPGKAPRILVYAASTLQTGVPSRFSGRGSGTIFTLSITSLQSEDYATYYCQQNDKIPRTFGQGTKVEIK

EC50 [1]: 0.5 nM
EC50 [2]: 0.4 nM
EC50 [3]: 0.3 nM
EC50 [4]: 50 nM
B3: NI-204.11F11 (antibody, human IgG1, V domains shown)
VH: EVQLVESGGGLVKPGGSLRLSCAASGLPFSKAWMSWVRQAPGKGLEWVGRIKSQADGGAIDYATSVNGRFTITRDDSKNTLYLQMTSLKTEDTAVYYCTPGIILRFLEGTLRGMDVWGQGTTVTVSS
VL: EIVLTQSPPTLSLSPGERATLSCRASQTVSKYLAWYQQKPGQAPRLLVYDTSNRAIGIPPRFSGSGSGTDFTLTISTLEPEDFALYYCQQRSNWPPTFGQGTRLEIK

EC50 [1]: 0.2 nM
EC50 [2]: 0.06 nM
EC50 [3]: 0.08 nM
EC50 [4]: 0.1 nM
B7: NI-204.67E12 (antibody, human IgG1, V domains shown)
VH: EVQLLESGGGLIRPGGSLRLSCAASGFTFSNYAMGWVRQAPGKGLEWVSAISGNGGSTYYGGSVKGRFTISRDKSKNTLYLQMNNLRADDTAVYFCAKLEAVAPTLTLRYFKHWGKGTLVTVSS
VL: DIQMTQSPSTLSASVGDRVTITCRASQSISRWLAWYQQRPGRAPDLLIYDASNLESGVPSRFSGSGSGTEFTLTISSLQPGDFATYYCQQYYSYVYTFGQGTKLEIK

binding result (bovine serum albumin): no binding
EC50 [1]: 0.06 nM
EC50 [5]: 0.4 nM
EC50 [2]: 0.6 nM
EC50 [3]: 0.07 nM
EC50 [4]: > 40 nM
EC50 [6]: 3.6 nM
EC50 [7]: 3.1 nM
EC50 [8]: 0.39 nM
EC50 [9]: 0.36 nM
EC50 [10]: 75.9 nM
B8: NI-204.12G7 (antibody, human IgG1, V domains shown)
VH: EVQLVESGAEVKKPGASVTLSCKASGYTFTAYYIHWVRQAREQGLEWMGVINPSTGTTFYAQNFPDRVSVTRDTSTSTVFMELHNLKSEDTAVYYCARAISEHGSGSYSPYYWGQGTLVTVSS
VL: SYVLTQPPSVSVSLGQMAAITCSGEALPKKYGYWYQQKPGQVPVLLIYRDVERPSGVPDRFSGSSSGTMVTLTISGVQAEDEADYYCLSADSSGTWVFGGGTKLTVL
